The results in this text go back to the DeepSol protein solubility set.

The data set in a line: soluble on expression in E. coli; label from the status in PepcDB or PDB records.
On to “DHIPGTDIDLTVPYAAEGPGPTVNTLGDVDGKPVVNVSGAEIHKTTGNLNMTTVSVRTHLTLGQALGRWLIAHDTLVPIEQIFPQGKTPEEVDEVNKAAFSTSEASATIAAMNQLHKPVDT”, for which the “soluble on expression in E. coli” value was “not soluble”.

As for “DIQMTQSPSSLSASVGDRVTITCRASQDIPRSISGYVAWYQQKPGKAPKLLIYWGSYLYSGVPSRFSGSGSGTDFTLTISSLQPEDFATYYCQQHYTTPPTFGQGTKVEIKRTVAAPSVFIFPPSDEQLKSGTASVVCLLNNFYPREAKVQWKVDNALQSGNSQESVTEQDSKDSTYSLSSTLTLSKADYEKHKVYACEVTHQGLSSPVTKSFNRGEC”, the “soluble on expression in E. coli” value is on record as “soluble”. On to “DITEIEEAMNRQRVAGRVFEASQDGLIVLNHKGVITMVNPAVTKLVGLEIDQLVGQSFIQTIRWRKLQEMMPSIIESIENYGVWQGEVIEQNHLGLLVPMFARVNRIVKCENNGFYDLVIILTD”, for which the “soluble on expression in E. coli” value is “not soluble”. Take “DITVYNGQHKEAATAVAKAFEQETGIKVTLNSGKSEQLAGQLKEEGDKTPADVFYTELTATFADLSEAGLLAPISEQTIQQTAQKGVPLAPKKDWIALSGRSRVVVYDHTKLSEKDMEKSVLDYATPKWKGKIGYVSTSGAFLEQVVALSKMKGDKVALNWLKGLKENGKLYAKNSVALQAVENGEVPAALINNYYWYNLAKEKGVENLKSRLYFVRHQDPGALVSYSGAAVLKASKNQAEAQKFVDFLASKKGQEALVAARAEYPLRADVVSPFNLEPYEKLEAPVVSATTAQDKEHAIKLIEEAGLK”: the “soluble on expression in E. coli” value is on record as “soluble”.

For “DKEVVVLGSGDPMFHGIGSTLHRLLPNHSMTVIPQPSSASLACARLGWALDTTSVYSLVTHPIAHLTLAIEQGDRFLVLGRNHESPHEICEHLISLGQSTAEVTVLSDIGSVSETITSGAATDYPSNDSALNVIAIRPLAATRSRVPGLPDSEYVTDGQLTKQHVRALAISALAPKPHETLWDIGGGSGSIAIEWLRSTPQTTAVCFEISEERRERILSNAINLGVSDRIAVQQGAPRAFDDVPDNPD”, the “soluble on expression in E. coli” value is “not soluble”. As for “DLAKELFTHKGSGTLIRRGERVIRATTWKDLDLPRLQHLIQSSFRRTLIPHYFETTPLLRAYVSENYRAAVILTKLGNVPYLDKFAVLDDAQGEGLGRAVWSIMREETPQLFWRSRHNNQANAFYYAESDGYYKQDHWKIFWNGLHHFQQIQQCVAHCTQH”, the entry is “not soluble”; as for “DLLSWFKGNDRPPAPAGKALEFSKPAAWQNNLPLTPADKVSGYNNFYEFGLDKADPAANAGSLKTDPWTLKISGEVAKPLTLDHDDLTRRFPLEERIYRMRCVEAWSMVVPWIGFPLHKLLALAEPTSNAKYVAFETIYAPEQMPGQQDRFIGGGLKYPYVEGLRLDEAMHPLTLMTVGVYGKALPPQNGAPVRLIVPWKYGFKGIKSIVSIKLTRERPPTTWNLAAPDEYGFYANVNPYVDHPRWSQATERFIGSGGILDVQRQPTLLFNGYADQVASLYRGLDLRENFLEHHHHHH”, “soluble”. “DLQTLLDKSFNLIISTLDAKYCKILKLLNDGNFLVEAGVGWKPEDTGKVIKREEASVAGYTVLSKKPINIEDLDKKGSIERMGLYGYSEITHGISVLVGSLEKPYGVLAVHSTRKEKFTKEDACFLKGIASMLSLALERNKVESTL”: the “soluble on expression in E. coli” value was “not soluble”. Turning to “DNFNQQKKKFGGQDIFMTEEQKKYYNAMKKLGSKKPQKPIPRPANKFQGMVFD”, the “soluble on expression in E. coli” value is on record as “soluble”.

Take “DPAAADRAEELRIQNLLKQLQQAVTNNDLTIYYQPIMSLQQQSLELYQIYIGLHGDEELISSVTLLEIAKKRELIAQIDRWVVARAIAQIGERQRAGHTTHLLVQIDSASFTDPQLLTMLRTELAAHHVRGEQLWLQTPESKVFTHLYNAQQFLSEISVQGCKMGLEQFGTGLDSFQLLTHFKPAFLKLDRNLTQDINSNHDSLEKIREITSRAQDNGIATFAEFVTDSTSMSALFKVGVDYVQGDFVAPI”: the “soluble on expression in E. coli” value was “not soluble”.

On to “DPATVFRLVAAEALTLTGADGTLVAVPADPDASAAEELVIVEVAGAVPAEVEASAIPVQDNAIGQAFRDRAPRRLDVLDGPGLGGPALVLPLRATDTVAGVLVAVQGSGARPFTAEQLEMMTGFADQAAVAWQLASSQRRMSELDILAD”, for which the “soluble on expression in E. coli” value is listed as “soluble”. With “DPDQFRAIIESPEGAGHVGYQYRRNTGSTMRMVSDVLDERVSLWDFHCDPSGNVIQPGPNVDSRQYLQAAIDYVSSNGGGTITIPAGYTWYLGSYGVGGIAGHSGIIQLRSNVNLNIEGRIHLSPFFDLKPFQVFVGFDNGDPASSGNLENCHIYGHGVVDFGGYEFGASSQLRNGVAFGRSYNCSVTGITFQNGDVTWAITLGWNGYGSNCYVRKCRFINLVNSSVNADHSTVYVNCPYSGVESCYFSMSSSFARNIACSVELHQHDTFYRGSTVNGYCRGAYVVMHAAEAAGAGSYAYNMQVENNIAVIYGQFVILGSDVTATVSGHLNDVIVSGNIVSIGERAAFSAPFGAFIDIGPDNSGASNVQDIQRVLVTGNSFYAPANITDSAAITLRANLNGCTFIANNFDCRYMVYNAPGTTSPVVQNLVWDKSNVIGGTHANQRAGQNLFDMQFASVVNSTIEVQLSCEDLSMFSCILFPASCQLSYSKITVDSAWTKSMSNTAVFEGNQQAGANVYVSYPATVNLTSYNTQGAVPFFSTDTNYAWVTSAYSLSINENLDFSPPATYTNKANGQLVGVGYNEIGGVRSVSVRLMLQRQV”, the “soluble on expression in E. coli” value is reported as “soluble”.

Consider “DPLQILGQLTGQLEQQQTAPSGTSAKAPPANDQQAEFVASILGDTEDTWKALFAQAGKQYRDPKLVLFSGQVNSACGFASAAVGPFYCPADQRVYLDMSFFREMETRFAAAGDFAQAYVIAHEIGHHVQTLLGVSAKVDAARRAGQRMEGDNGLLVRQELQADCLAGVWAYQAQKRLNWLEPGDVEEALNAANAIGDDRLQQQGRGRVVPDSFTHGTSAQRVRWFKIGFAEGEVNRCDTF”, for which the “soluble on expression in E. coli” value is listed as “not soluble”. Consider “DQVSSLSSKYAVRLYEIIISWRAAGKTPMFSTMELRERLGMMPDEYQKMELFKRKVLDFAVKQINDKTDISITYEQHKEGRKIVGFTFSILHKIGSKDIPLENQSELFAGMTDLEAGTIRVRAEAYIASLIAKGQNVTKAHRLNILKKAVEERWGFEDVAKDNGAKNPENKNAKVVLNEWEKISNGTRFKDKDGTIWVKDSGMLRTEGTNRWIADSQIAKLFPMLTVMVEEGI”, for which the “soluble on expression in E. coli” value was “not soluble”. As for “DVLAVTSCPSGVAHTFLAAKSLEKAACALGIKIKVETQGANGVINRITEKDIEKAKFVIFAHDVAIKEPERFRKIKVLDVTTKDAMLNATALLQARRVS”, the entry is “not soluble”; as for “DVQITQSPSYLAASPGETITLNCRASKSISKYLAWYQEKPGKTNKLLIYSGSTLQSGIPSRFSGSGSGTDFTLTISSLEPEDFAMYFCQQHNEYPYTFGGGTKLEIKRTVAAPSVFIFPPSDEQLKSGTASVVCLLNNFYPREAKVQWKVDNALQSGNSQESVTEQDSKDSTYSLSSTLTLSKADYEKHKVYACEVTHQGLSSPVTKSFNRGEC”, “soluble”. For “EDLPTARVGVDYTSDSQVGGTLDLGRRFGDNNQFGARVNLVHREGEGAIDNDKRRTTLASLGLDYRGDRFRSSLDFGYQKKTFHGGTMGVNISGVDFIPALPDNSKNYSQKWGYSDIESEFGMAKAEYDLTDSWTVYSALGGQHSHEIGTYSAPKLLNKNGDATVGRLDTNRIIDAISGMGGVRGDFNTGAISHKVNLGYAAQVHTDATAWRMSARNPTTNIYDNHDVAMPDNAYFGGNYHDPLITSRSRTQGWLLSDTLGFFNDKVLFTAAARHQKVVVRNYSNATGLEDTSSRYTQSRWMPTFGLVYKPWEQLSLYANHTEALQPGSVAPTTAANAGQSTGIAHSKQDEVGVKIDYGTIGGSLALFEIKKPNAISDTAGNYGLDGEQRNRGVEMNVFGEPMLGLRLNASTVWLDAKQTKTAEGATDGKDAIGVANFYAVLGAEYDIKPVEGLTATARVNHSGSQYADAANTKKLDSYTTLDLGLRYRMRLNADQNEMIWRVGVTNVTNEKYWSGIDDTGTYLFEGDPRTVRVSMSYDF”, the “soluble on expression in E. coli” value is reported as “not soluble”. Under “EEHTIIQAEFYLLPDKRGEFMFDFDGDEIFHVDIEKSETIWRLEEFAKFASFEAQGALANIAVDKANLDVMKERSNNTPDANVAPEVTVLSRSPVNLGEPNILICFIDKFSPPVVNVTWLRNGRPVTEGVSETVFLPRDDHLFRKFHYLTFLPSTDDFYDCEVDHWGLEEPLRKHWEFEE” stands “soluble”. As for “EGEPIVEYQVKDLLYDQGVRVELHGKDLVSRVGEMTLDKVYYAFSKFFGLDIVTDYLEVPQDIPPRPPALCPGCPHRSSFIDLKKAITMASFKPNETFISG”, the entry is “not soluble”; as for “EGKKIVFISDIHHGPYFERERVADLVRKVNELEPDIIILGGDYVSGDVGYIGACFEELSRLKADMGIFGVTGNHDEWTDYNLTVKCMENAGITVLSNRAEWLEIGDDKIKIAGVDWSTDWYFNSEPYVDPLIKDAEENDFVILVSHTPDLAEELTTDKVDLVLSGHTHGGQITFFGLWAPYVPSFYGQKYRTGIVKTDKTMALVSNGVGNTFLPIRFF”, “not soluble”; as for “EHEKGQKLIKTMDQEIDEVAKIGKTIKKPKTVLFEVAALPDIYSFGNGTFLNEMIETIGAKNVLANEKGWLPVTEEAAIAAKPEVILTNVNYMKDPAKEILARKNWESVPAVQNKEVFEIDNMSSSLPNNHITKALKQMAKAVYPEEYKDLKDE”, “not soluble”. As for “EIGLLLAILLFMKRVTENTRITVATGRLDLTQTGEIAHHDEVLDIPKGVEVYEIEGPFFFGIANRFEEIMNTLGDHPDVRIIRMRHVPFMDSTGMHNLENLIKMSRKEGVSIVLSGVRKDVHEELATAGIVELLGEENVCADIQAALRQAQAIAQGA”, the entry is “not soluble”; as for “EIGYYEWAIENDEMHCNSLYKKIFGFSDAHDPTYKEFTSQIFPKDLSVRNNAVQRAILVGGVYNAEYRVRHPNDELRWVKSFGKAIYDEKGKPVKLIGMILD”, “not soluble”. Turning to “EIVMTQSPATLSVSPGERATLSCRASQSIGNNLHWYQQKPGQAPRLLIYYASQSISGIPARFSGSGSGTEFTLTISSLQSEDFAVYYCQQSNSWPYTFGGGTKVEIK”, the “soluble on expression in E. coli” value is on record as “soluble”. Regarding “EKFPLVLMLEPTHLCNLACSGCGRIREYADTIQQMMSLEECLRSVDECPAPVVTITGGEPFLYTHIYELIPEVLDRGKHVYLCTNGLLLEKALENVKVHPNFYLNVHMDGLEETHDRILERKGTFKVAIEGIRKAKAKGFRVCTNTTIFKDTDLVEIEMLFSLLTDLGVDGILVAPGFDYEAVG”, the “soluble on expression in E. coli” value is “not soluble”. Under “EKGFKVVVLESAKVGFGATGRNGGQIVNSYSRDVDVIESRYDQNQAKALCDMIFEGGDIIRGLIDKYDINCDYKQGGLFTALNSKQLKGLEEHKKNWERYGNDQLTLLDAGEVEQAVGTKVYTGGLLDMRGGHIHPLKLALGEAAAFISLGGQIFEQSAVVSIDKGMNPVVKTAQGSVKSK” stands “not soluble”; under “ELLCPAGTLKSMRYAFAYGADAVYAGQPRYSLRVRNNDFDHAQLAEGIAEAHALGKRFYVVVNIAPHNAKLKTFLRDLEPVVAMGPDALIMSDPGLIMLVRQHFPQMPIHLSVQANAVNWAAVQFWRQQGLTRVILSRELSLEEIEEIRQQVPDMELEVFVHGALCMAYSGRCLLSGYINRRDPNQGTCTNACRWEYKAVEGREDELGNVVAREPTLGRGAPTEQVFLLEEGNRPGEPMAAFEDEHGTYIMNSKDLRAVQHVERLARIGVHSLKIEGRTKSHYYVARTAQVYRQAIDDAAAGKPFDRGLMDTLESLAHRGYTEGFLRRHVHDEYQNYQHGHSLSERQQFVGELTGERRDGLAEVEVKNRFQRGDSVELMTPRGNLSLRVEDLRNAAGEAIEVAPGNGHVVYLALPEGLDLCYALLMRDLQPGQDTRQPQAERSGGCAGK”, “not soluble”.
